Target: α-Synuclein fibrils (preformed fibrils of recombinant human wild-type αSyn) (human, UniProt P37840 1-140)
Assay: co-sedimentation; as a4 with a range of peptide concentrations (0–200 μM) and αSyn fibrils (100 μM); bound peptide by reversed phase chromatography
Conditions: both partners purified

Kd [µM] | Binder
> 100 | TKQTQTFTTYSDNQPGVLIQVYE (Hsc70 residues 422–444; source: synthetic peptide; bought: GL Biochem Ltd) [Hsc-6 (Hsc70-derived peptide)]
> 100 | GILNVSAVDKSTGKENKITITN (Hsc70 residues 484–505; source: synthetic peptide; bought: GL Biochem Ltd) [Hsc-10 (Hsc70-derived peptide)]
